In patent US20260193348A1 (ANTENGENE BIOLOGICS, published 2026):
Where a chain is given by its changes, count along the chain named. Numbers in names are those of the source. One block for each binder: values may come before it.

Experiments:
GPRC5D on MM.1S cells [1] = biological target: T1, GPRC5D on MM.1S cells (human, UniProt Q9NZD1 1-345); test: cell-based or functional assay
GPRC5D on MM.1S cells [2] = biological target: T1, GPRC5D on MM.1S cells; test: cell-based or functional assay; remark: listed apart in the source
GPRC5D on MM.1S cells [3] = biological target: T1, GPRC5D on MM.1S cells; test: FACS on MM.1S cells
Protocol: The binding affinities of the generated humanized Fab-scFv-Fab bispecific antibodies were determined by FACS analysis. […] (a) Jurkat cells were washed by Staining Buffer (PBS+1% BSA) in round bottom 96-well plate. [0833] (b) Antibody dilutions and cells were added to each well, incubated at 4 degrees for 1 hour. [0834] (c) Cells were spined down at 300 g for 3 minutes, and the supernatants were discarded. [0835] (d) Cells were washed with Staining Buffer. […] (e) Step (d) was repeated and the cells were incubated for 0.5 hours at 4 degrees with secondary antibody in Staining Buffer. [0837] (f) After incubation, step (d)-(e) were repeated. […] (g) Staining Buffer was added and fluorescence signals were recorded by flow cytometry.
The binding affinities of the generated humanized Fab-scFv-Fab bispecific antibodies were determined by FACS analysis. The ATG-Bis-40E9 was used as positive control and hIgG1 isotype was used as negative control. The protocol for FACS analysis is identical to that described in Example 3.2, except that MM.1S cells were used in this example.

T1 sequence (Q9NZD1 whole entry): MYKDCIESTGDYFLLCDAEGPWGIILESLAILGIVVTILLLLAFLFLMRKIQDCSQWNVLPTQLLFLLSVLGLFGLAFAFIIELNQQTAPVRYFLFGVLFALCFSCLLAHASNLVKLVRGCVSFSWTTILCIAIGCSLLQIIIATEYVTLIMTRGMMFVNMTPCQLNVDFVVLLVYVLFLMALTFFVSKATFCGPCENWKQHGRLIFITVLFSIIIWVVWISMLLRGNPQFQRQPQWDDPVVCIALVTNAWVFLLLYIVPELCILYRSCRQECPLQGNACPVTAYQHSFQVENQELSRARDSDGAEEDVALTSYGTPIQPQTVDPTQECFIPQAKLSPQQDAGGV

B2: Bis-108+147-R35S.L (bispecific antibody)
heavy 1: not shown
heavy 2: EVQLVQSGAEVKKPGASVKVSCKASGYTFTSYVIHWVRQAPGQGLEWMGYFNPYNDGTKYNEEFKGRVTLTSDKSTSTAYMELRSLRSDDTAVYYCARGGVRRYFDVWGQGTTVTVSSASTKGPSVFPLAPSSKSTSGGTAALGCLVKDYFPEPVTVSWNSGALTSGVHTFPAVLQSSGLYSLSSVVTVPSSSLGTQTYICNVNHKPSNTKVDKKVEPKSCGGGGSGGGGSEVQLVQSGAEVKKPGSSVKVSCKASGYTFTSYWMHWVRQAPGQCLEWMGNINPSSGATNYNEKFKSRVTLTVDKSTSTAYMELSSLRSEDTAVYYCARDRSSQYYFDYWGQGTTVTVSSGGGGSGGGGSGGGGSGGGGSDIVMTQSPDSLAVSLGERATINCKSSQSLLNSRSSKNYLAWYQQKPGQPPKLLIYWASTRESGVPDRFSGSGSGTDFTLTISSLQAEDVAVYYCTQSYTLRTFGCGTKVEIKGGGGSGGGGSDKTHTCPPCPAPEAAGGPSVFLFPPKPKDTLMISRTPEVTCVVVDVSHEDPEVKFNWYVDGVEVHNAKTKPREEQYNSTYRVVSVLTVLHQDWLNGKEYKCKVSNKALPAPIEKTISKAKGQPREPQVCTLPPSREEMTKNQVSLSCAVKGFYPSDIAVEWESNGQPENNYKTTPPVLDSDGSFFLVSKLTVDKSRWQQGNVFSCSVMHEALHNHYTQKSLSLSPGK
light: DIQMTQSPSSLSASVGDRVTITCRASQDIGSNLNWLQQKPGKAIKRLIYATFGLDSGVPSRFSGSRSGTDFTLTISSLQPEDFATYYCQQYASFPYTFGGGTKVEIKRTVAAPSVFIFPPSDEQLKSGTASVVCLLNNFYPREAKVQWKVDNALQSGNSQESVTEQDSKDSTYSLSSTLTLSKADYEKHKVYACEVTHQGLSSPVTKSFNRGEC
notes: Fab-scFv-Fab format
EC50, Jurkat-NFAT-Luciferase assay in the presence of MM.1S cells (GPRC5D on MM.1S cells [1]): 1.87 nM | Top RLU, Jurkat-NFAT-Luciferase assay in the presence of MM.1S cells (GPRC5D on MM.1S cells [1]): 344 RLU | IC50 of T-cell dependent cytotoxicity on MM.1S cells (GPRC5D on MM.1S cells [2]): 1.64 nM | Top (%) target cell killing, MM.1S cells (GPRC5D on MM.1S cells [2]): 102% | EC50 (GPRC5D on MM.1S cells [3]): 1.53 nM | Top signal (GPRC5D on MM.1S cells [3]): 1860 MFI

B3: Bis-108+147-N31Y.L (bispecific antibody)
heavy 1: not shown
heavy 2: B2 heavy 2 with N401Y, S405R
light: B2 light
notes: Fab-scFv-Fab format
EC50, Jurkat-NFAT-Luciferase assay in the presence of MM.1S cells (GPRC5D on MM.1S cells [1]): 0.27 nM | Top RLU, Jurkat-NFAT-Luciferase assay in the presence of MM.1S cells (GPRC5D on MM.1S cells [1]): 11.8 RLU | Top (%) target cell killing, MM.1S cells (GPRC5D on MM.1S cells [2]): 122% | EC50 (GPRC5D on MM.1S cells [3]): 1.93 nM | Top signal (GPRC5D on MM.1S cells [3]): 1930 MFI

B5: Bis-108+147-N37K.L (bispecific antibody)
heavy 1: not shown
heavy 2: B2 heavy 2 with S405R, N407K
light: B2 light
notes: Fab-scFv-Fab format
EC50, Jurkat-NFAT-Luciferase assay in the presence of MM.1S cells (GPRC5D on MM.1S cells [1]): 0.15 nM | Top RLU, Jurkat-NFAT-Luciferase assay in the presence of MM.1S cells (GPRC5D on MM.1S cells [1]): 424 RLU | IC50 of T-cell dependent cytotoxicity on MM.1S cells (GPRC5D on MM.1S cells [2]): 1490 nM | EC50 (GPRC5D on MM.1S cells [3]): 2.15 nM | Top signal (GPRC5D on MM.1S cells [3]): 1900 MFI

B6: Bis-108+147-K36R.L (bispecific antibody)
heavy 1: not shown
heavy 2: B2 heavy 2 with S405R, K406R
light: B2 light
notes: Fab-scFv-Fab format
EC50, Jurkat-NFAT-Luciferase assay in the presence of MM.1S cells (GPRC5D on MM.1S cells [1]): 0.76 nM | Top RLU, Jurkat-NFAT-Luciferase assay in the presence of MM.1S cells (GPRC5D on MM.1S cells [1]): 326 RLU | IC50 of T-cell dependent cytotoxicity on MM.1S cells (GPRC5D on MM.1S cells [2]): 1940 nM | EC50 (GPRC5D on MM.1S cells [3]): 1.56 nM | Top signal (GPRC5D on MM.1S cells [3]): 1840 MFI

B7: Bis-108+147-R33A.L (bispecific antibody)
heavy 1: not shown
heavy 2: B2 heavy 2 with R403A, S405R
light: B2 light
notes: Fab-scFv-Fab format
EC50, Jurkat-NFAT-Luciferase assay in the presence of MM.1S cells (GPRC5D on MM.1S cells [1]): 2.48 nM | Top RLU, Jurkat-NFAT-Luciferase assay in the presence of MM.1S cells (GPRC5D on MM.1S cells [1]): 287 RLU | IC50 of T-cell dependent cytotoxicity on MM.1S cells (GPRC5D on MM.1S cells [2]): 1.51 nM | Top (%) target cell killing, MM.1S cells (GPRC5D on MM.1S cells [2]): 45.1% | EC50 (GPRC5D on MM.1S cells [3]): 1.87 nM | Top signal (GPRC5D on MM.1S cells [3]): 1650 MFI

Continued, in another order:

EC50, Jurkat-NFAT-Luciferase assay in the presence of MM.1S cells (GPRC5D on MM.1S cells [1]): 0.11 nM | Top RLU, Jurkat-NFAT-Luciferase assay in the presence of MM.1S cells (GPRC5D on MM.1S cells [1]): 368 RLU | EC50 (GPRC5D on MM.1S cells [3]): 2.61 nM | Top signal (GPRC5D on MM.1S cells [3]): 2260 MFI
B1: Bis-108+ch147 (bispecific antibody)
heavy 1: not shown
heavy 2: EVQLVQSGAEVKKPGASVKVSCKASGYTFTSYVIHWVRQAPGQGLEWMGYFNPYNDGTKYNEEFKGRVTLTSDKSTSTAYMELRSLRSDDTAVYYCARGGVRRYFDVWGQGTTVTVSSASTKGPSVFPLAPSSKSTSGGTAALGCLVKDYFPEPVTVSWNSGALTSGVHTFPAVLQSSGLYSLSSVVTVPSSSLGTQTYICNVNHKPSNTKVDKKVEPKSCGGGGSGGGGSQVQLQQPGTELVKPGTSVKLSCKASGYTFTSYWMHWVKQRPGQCLEWIGNINPSNGATNYNEKFKSKATLTVDKSSSTAYMQLSSLTSEDSAVYYCARDRSSQYYFDYWGQGTTLTVSSGGGGSGGGGSGGGGSGGGGSDIVMSQSPSSLAVSAGEKVTMSCKSSQSLLNSRSRKNYLAWYQQKPGQSPKLLIYWASTRESGVPDRFTGSGSGTDFTLTISSVQAEDLAVYYCTQSYTLRTFGCGTKLEIKGGGGSGGGGSDKTHTCPPCPAPEAAGGPSVFLFPPKPKDTLMISRTPEVTCVVVDVSHEDPEVKFNWYVDGVEVHNAKTKPREEQYNSTYRVVSVLTVLHQDWLNGKEYKCKVSNKALPAPIEKTISKAKGQPREPQVCTLPPSREEMTKNQVSLSCAVKGFYPSDIAVEWESNGQPENNYKTTPPVLDSDGSFFLVSKLTVDKSRWQQGNVFSCSVMHEALHNHYTQKSLSLSPGK
light: B2 light
notes: Fab-scFv-Fab format
IC50 of T-cell dependent cytotoxicity on MM.1S cells (GPRC5D on MM.1S cells [2]): 0.53 nM | Top (%) target cell killing, MM.1S cells (GPRC5D on MM.1S cells [2]): 99.4%

EC50, Jurkat-NFAT-Luciferase assay in the presence of MM.1S cells (GPRC5D on MM.1S cells [1]): 0.47 nM | Top RLU, Jurkat-NFAT-Luciferase assay in the presence of MM.1S cells (GPRC5D on MM.1S cells [1]): 408 RLU | EC50 (GPRC5D on MM.1S cells [3]): 1.58 nM | Top signal (GPRC5D on MM.1S cells [3]): 1740 MFI
B4: Bis-108+147-R35K.L (bispecific antibody)
heavy 1: not shown
heavy 2: B2 heavy 2 with S405K
light: B2 light
notes: Fab-scFv-Fab format
IC50 of T-cell dependent cytotoxicity on MM.1S cells (GPRC5D on MM.1S cells [2]): 0.61 nM | Top (%) target cell killing, MM.1S cells (GPRC5D on MM.1S cells [2]): 99.9%

EC50, Jurkat-NFAT-Luciferase assay in the presence of MM.1S cells (GPRC5D on MM.1S cells [1]): 0.25 nM | Top RLU, Jurkat-NFAT-Luciferase assay in the presence of MM.1S cells (GPRC5D on MM.1S cells [1]): 334 RLU | EC50 (GPRC5D on MM.1S cells [3]): 1.5 nM | Top signal (GPRC5D on MM.1S cells [3]): 2030 MFI
B8: Bis-108+147-S31R.H (bispecific antibody)
heavy 1: not shown
heavy 2: B2 heavy 2 with S262R, S405R
light: B2 light
notes: Fab-scFv-Fab format
IC50 of T-cell dependent cytotoxicity on MM.1S cells (GPRC5D on MM.1S cells [2]): 4.43 nM | Top (%) target cell killing, MM.1S cells (GPRC5D on MM.1S cells [2]): 159%

EC50, Jurkat-NFAT-Luciferase assay in the presence of MM.1S cells (GPRC5D on MM.1S cells [1]): 0.32 nM | Top RLU, Jurkat-NFAT-Luciferase assay in the presence of MM.1S cells (GPRC5D on MM.1S cells [1]): 406 RLU | EC50 (GPRC5D on MM.1S cells [3]): 1.76 nM | Top signal (GPRC5D on MM.1S cells [3]): 2050 MFI
B9: Bis-108+147-S32R.L (bispecific antibody)
heavy 1: not shown
heavy 2: B2 heavy 2 with S402R, S405R
light: B2 light
notes: Fab-scFv-Fab format
IC50 of T-cell dependent cytotoxicity on MM.1S cells (GPRC5D on MM.1S cells [2]): 0.54 nM | Top (%) target cell killing, MM.1S cells (GPRC5D on MM.1S cells [2]): 99%
